Where two headings read alike, the source gives them in different places.
Assays:
[1] = biological target: T1, tau peptide 145-157 (human); test: ELISA
T1 peptide: ADGKTKIATPRGA
Description: (§1) A series of binding ELISA was performed using various truncated versions of the tau protein and 13mer peptide libraries spanning the entire hT40 molecule for mapping the epitopes of anti-tau scAbs (Full list of protein antigens used is given in Table 14). In general, ELISA plates were coated with 1 μg/ml hT40 or dGA or dGAE or other truncated versions of the protein and in the case of biotinylated peptides, plates were coated with 5 μg/ml Streptavidin followed by 1 μg/ml biotinylated peptide. The plates were blocked with 2% MPBS and scAb samples added at desired starting concentrations and double diluted across the plate. Binding was detected using anti-Human C Kappa HRP conjugated secondary antibody and the resulting immunoreaction was developed and absorbance values measured as described above.

[2] = biological target: T2, full length human tau protein 2N4R (hT40) (human, UniProt P10636 1-758); test: SPR, scAb captured, tau analyte
T2 construct: recombinant; also called T441
Description: (§2) The capture antibody was diluted 1/100 in 10 mM Sodium acetate buffer pH 5.0 and passed over the activated chip surface for a period of at least 420 s. Final ligand immobilisation levels over 12,000 RU were deemed to be satisfactory.
(§3) The scAb to be tested was added only to flow cell 2 so that flow cell 1 could act as a control to subtract any interaction with the analyte and the chip surface. […] The multi-cycle protocol was as follows-Three start-up cycles composed of an initial capture, to the desired level, of the scAb to be tested was performed followed by a 30 s injection of glycine buffer pH 2.0 after each cycle to regenerate the chip surface. […] The target was added for a 120 s association period and 420 s dissociation period followed by another regeneration, 30 s injection of glycine buffer pH 2.0 in between each cycle.
(§4) The single cycle kinetics protocol was similar and utilised the same level of scAb capture. […] In single cycle kinetics the regeneration step was performed only after the final analyte concentration was added. Binding responses were analysed in Biacore X100 evaluation software and data fitted to a 1:1 binding model to obtain kinetic and affinity characterisation.

[3] = biological target: T2, full length human tau protein 2N4R …; test: Biacore
Description: as §2, §3, §4

[4] = biological target: T3, dGAE (tau 297-391) (human, UniProt P10636 614-708); test: direct ELISA
T3 construct: monomer; also called dGAE95

[5] = biological target: T4, tau fragment 369-391 (human); test: ELISA
T4 peptide: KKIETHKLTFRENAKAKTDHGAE
Description: as §1

[6] = biological target: T5, tau fragment 369-390 (human); test: direct ELISA
T5 peptide: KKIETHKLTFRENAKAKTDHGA

[7] = biological target: T2, full length human tau protein 2N4R …; test: sandwich ELISA, S1D12 mAb capture, scAb detection
Description: Full length tau (hT40), at 1 μg/ml starting concentration was added to designated wells and double diluted across rest of the plates and left to incubate at R/T for 1 h. A series of detection scAbs with varying epitope recognition properties were added at 10 μg/ml to designated wells (FIG. 22). For colourimetric detection HRP conjugated anti-HuCk secondary antibody was used and the resulting immunoreaction was developed and absorbance at 450 nm measured as described previously. Cut-off point for a positive binding event was an absorbance value of 0.3 following background subtraction. In order to enhance the assay sensitivity, a chemiluminescent detection method was adopted where 50 μL SuperSignal ELISA Femto Substrate (Thermo Scientific) was added to each well following incubation with anti-HuCK HRP antibody and subsequent washing. The luminescence was read using Clariostar Plus microplate reader. A further modification to this protocol was done where various detection scAbs were directly conjugated with HRP and detected using chemiluminescent protocol as before.

[8] = biological target: T2, full length human tau protein 2N4R …; test: hT40 ELISA
[9] = biological target: dGA (tau 297-390) (human, UniProt P10636 614-707); test: ELISA
Description: as §1

[10] = biological target: T6, human tau fragment 296-390 of Line 1 mice (human, UniProt P10636 613-707); test: Western blot of brain homogenates
T6 construct: also called L1 fragment; 10-kDa tau fragment

[11] = biological target: T7, mouse tau (mouse, UniProt P10637 2-733); test: Western blot of brain homogenates
T7 construct: endogenous protein of mouse brain or plasma; also called endogenous mouse tau

[12] = biological target: T2, full length human tau protein 2N4R …; test: SPR, hT40 immobilised, mAb analyte
Description: For anti-tau mAb SPR measurements, htau40 was conjugated to the surface of a CM5 sensor chip using amine coupling as explained previously. Briefly, 2 μg/mL htau40 in 10 mM Sodium acetate buffer (pH 4.0) was passed over the activated chip surface (EDC/NHS) in flow cell 2 for a period for 45 s followed by blocking with 1 M ethanolamine-HCl PH 8.5. Flow cell 1 was set up as reference control and blocked simultaneously. Final immobilisation level of htau40 (Rmax) was approximately 250 RU. […] The mAb was added for a 120 s association period and 600 s dissociation period followed by a regeneration cycle of 30 s injection of glycine buffer pH 1.5 in between each cycle. Binding responses were analysed in Biacore X100 evaluation software and data fitted to a 1:1 binding model to obtain kinetic and affinity characterisation.

[13] = biological target: T8, human tau (hT40) with P301S and G335D of Line 66 mice (human, UniProt P10636 1-758); test: Western blot
T8 construct: transgene product in brain homogenate or plasma; also called L66 human tau

[14] = biological target: T9, aggregated dGAE (human, UniProt P10636 614-708, limits assumed); test: capture ELISA, mAb coated at 1 µg/ml, aggregates titrated, S1G2 scAb detection
T9 construct: dGAE aggregated in vitro with DTT, 700 rpm, 37 C, 24 h; also called dGAE aggregates; dGAE agg

[15] = biological target: T5, tau fragment 369-390; test: direct ELISA
[16] = biological target: T3, dGAE (tau 297-391); test: direct ELISA; remark: listed apart in the source
[17] = biological target: T9, aggregated dGAE; test: capture ELISA, mAb coated at 1 µg/ml, S1G2 scAb detection

T2 sequence (P10636 other isoform, or with tags, fused parts or gaps limits assumed): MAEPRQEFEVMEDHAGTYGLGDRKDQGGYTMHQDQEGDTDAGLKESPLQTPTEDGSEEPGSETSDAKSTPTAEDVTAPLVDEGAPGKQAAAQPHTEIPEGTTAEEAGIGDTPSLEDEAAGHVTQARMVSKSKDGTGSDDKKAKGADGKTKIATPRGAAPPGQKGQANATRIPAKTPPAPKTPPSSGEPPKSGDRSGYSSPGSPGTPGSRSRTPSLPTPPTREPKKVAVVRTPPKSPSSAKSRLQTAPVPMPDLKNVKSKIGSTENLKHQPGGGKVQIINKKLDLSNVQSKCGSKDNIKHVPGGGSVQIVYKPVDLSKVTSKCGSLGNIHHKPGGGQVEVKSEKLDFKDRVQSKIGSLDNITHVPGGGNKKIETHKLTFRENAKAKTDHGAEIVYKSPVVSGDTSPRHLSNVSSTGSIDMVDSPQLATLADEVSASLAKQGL
T8 sequence (P10636 other isoform, or with tags, fused parts or gaps P301S G335D P301S G335D limits assumed): as the sequence (P10636 other isoform, or with tags, fused parts or gaps limits assumed) above, with P301S, G335D counted along it
T7 sequence (P10637 other isoform, or with tags, fused parts or gaps limits assumed): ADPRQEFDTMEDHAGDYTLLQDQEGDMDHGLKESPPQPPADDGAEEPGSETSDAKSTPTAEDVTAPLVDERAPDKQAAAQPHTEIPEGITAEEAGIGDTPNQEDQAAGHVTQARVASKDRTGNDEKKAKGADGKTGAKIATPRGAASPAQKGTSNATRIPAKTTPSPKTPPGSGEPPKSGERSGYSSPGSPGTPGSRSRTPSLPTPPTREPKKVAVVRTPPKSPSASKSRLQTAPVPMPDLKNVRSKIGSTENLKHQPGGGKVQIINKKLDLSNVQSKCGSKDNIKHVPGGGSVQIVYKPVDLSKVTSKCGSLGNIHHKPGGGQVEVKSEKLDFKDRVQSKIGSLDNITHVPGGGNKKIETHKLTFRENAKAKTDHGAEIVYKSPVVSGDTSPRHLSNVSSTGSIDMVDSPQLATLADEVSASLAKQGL

B1: 3aA6 scAb (scFv, not shown: small tags and cut ends)
scFv: QVRLQESGSSLVKPSQTLSLVCTVSGFPLTSNAVGWVRQAPGKAPEWLGLIDIDGDTAYNPALESRLSITRDTSKSQVSLSLSSVAIEDTAVYYCARHYDKWGYADSIDYWGPGLLVTVSSEGKSSGASGESKVDDQALLTQPSSVFGSLGQRVSITCSGSSSNVGYGDYVGWYQQVPGSAPKLLIYDATTRASGVPDRFSGSRSGNTATLTISSLQAEDEADYYCASYQNERSGVFGSGTRLTVLG
notes: scAb
- binding result [1]: binds
- Kd [2]: 989 nM
- koff [2]: 0.0188 s⁻¹
- kon [2]: 19000 M⁻¹ s⁻¹

B2: S1G10 scAb (scFv, not shown: small tags and cut ends)
scFv: QVQLQESGPSLVKPSQTLSLTCTVSGFSLTSNSVGWVRQAPGKAPEWVAGIDTDGEEGYNPALNSRLSITRDTSKSQVSLSLSSVTSEDTAVYYCGRSYRADGLAYGYVQAIDYWGPGLLVTVSSEGKSSGASGESKVDDQAVLTQPSSMSGSLGQRVSITCSGSFIGISSVGWFQQLPGSGLRTIIVASDGRPSGVPDRFSMSKSGNTATLTISSLQAEDEADYFCGSSDRTQYTGVFGSGTRLTVLG
notes: scAb
- Kd [3]: 0.4 nM
- EC50 (read off the curve) [4]: ~0.9 µg/mL
- binding result [5]: binds
- binding result [6]: binds
- LoD chemiluminescence detection [7]: 0.12 ng/mL
- LoD colourimetric detection [7]: 2 ng/mL

B3: S1B1 scAb (scFv, not shown: small tags and cut ends)
scFv: QVQLQESGPSLVKPSQTLSLTCTVSGFSLSSNSVGWVRQAPGKAPEWVAGIDTDGEEGYNPALNSRLSITRDTSKSQVSLSLSSVTSEDTAVYYCVRSYRTDGLAYGYVQAIDYWGPGLLVTVSSEGKSSGASGESKVDDQAVLTQPSSVSGSLGQRVSITCSGSFIGISSVGWFQQLPGSGLRTVIVASDGRPSGVPDRFSNSKSGNTATLTISSLQAEDEADYFCGSSDRTQYTGVFGSGTRLTVLG
notes: scAb
- binding result [8]: binds
- binding result [4]: binds
- binding result [9]: binds

B4: CC7 mAb (antibody, mouse IgG2a, V domains shown)
VH: QVQLQESGPSLVKPSQTLSLTCTVSGFSLTSNAVIWVRQAPGKAPEWVALIDVDGDAAYDPALKSRLSITRDTSKSQVSLSLRSVTTEDTAVYYCARDYGSWGYVSDIDYWGPGLLVTVSS
VL: RVVRTQPSSVSGSLGQRVSITCSGSYITGSSVGWFQQVPGSGLKTVIYDNNDRPSGVPDRFSGSKSGDTATLTISSLQAEDEADYYCASYDTSNIGLFGSGTRLTVLG
notes: sheep-mouse IgG2a chimeric mAb; also called CC7 antibody
- binding result [10]: no binding
- binding result [11]: no binding
- Kd [12]: 6.9 nM
- koff [12]: 0.0316 s⁻¹
- kon [12]: 4.58e+06 M⁻¹ s⁻¹
- binding result [13]: binds

B5: S1D9 scAb (scFv, not shown: small tags and cut ends)
scFv: QVQLQESGPSLVKPSQTLSLTCTVSGFSLTSNSVGWVRQAPGKAPEWVAGIDSDGEEGYNPALNSRLSITRDTSKNQVSLSLSRVTSEDTAVYYCGRTYRTDGYAYGYVQAIDYWGPGLLVTVSSEGKSSGASGESKVDDRVMLTQPPSVSGSPGQTVSITCSGSFIGISSVGWFQQLPGSGLRTVIFASDGRPSGVPDRFSNSKSGNTATLTISSLQAEDEADYFCGSSDRTQYTGVFGSGTRLTVLS
notes: scAb
- EC50 (read off the curve) [8]: ~1 µg/mL

B6: E2E8 mAb (antibody, mouse IgG2a, V domains shown)
VH: QVQLQESGPSLVKPSQTLSLTCTVSGFSLTDRGVAWVRQAPGKALEWVGTMRSGGTIDYNPALKSRLSITRDTSKSQVFLSLSSVTTEDMAMYYCARGYLSGDRYAWGRGLLVTVSS
VL: QAVLTQPSSVSKSLGQSVSIACSGSRSDIGYGNYVSWFQQIPGSAPKLLIYDTNTRASGVPDRFSGARSGNTATLTINSLQAEDEADYYCANIDSSRSHLFGSGTRLTVLG
notes: sheep-mouse IgG2a chimeric mAb
- EC50 (read off the curve) [14]: ~80 nM

B7: S2C6 scAb (scFv, not shown: small tags and cut ends)
scFv: QVQLQESGPSLVKPSQTLSLTCTVSGFSLISNSVGWVRQAPGKAPEWVAGIDTDGEEGYNPALKSQYAASDPDTSKSQVSLSLSSVTSEDTAVYYCGRTYRTDGFAYGYVQAIDYWGPGLLLTISSEGKSSGASGESKVDDQAVLTQPSSVSGSLGQRVSITCSGSFIGISSVGWFQQLPGSGLRTIIVASDGRPSGVPDRFSMSKSGNTATLTISSLQAEDEADYFCGSSDRTQYTGVFGSGTRLTVLG
notes: scAb
- EC50 (read off the curve) [15]: ~2 µg/mL
- EC50 (read off the curve) [16]: ~0.8 µg/mL

B8: 3aD6 scAb (scFv, not shown: small tags and cut ends)
scFv: QVQLQESGPSLVKPSQTLSLTCTVSGFSLTSNAVIWVRQAPGKAPEWVALIDVDGDAAYDPALKSRLSITRDTSKSQVSLSLRSVTTEDTAVYYCARDYGSWGYVSDIDYWGPGLLVTVSSEGKSSGASGESKVDDQAVLTQPSSVSGSLGQRVSITCSGSDIGGADVGWFQQVPGSGLRTLIYDNDNRPSGVPDRFSGSKSGNTATLTISSLQPEDEADYFCGTYSGANYGIFGSGTRLTVLG
notes: scAb
- binding result [1]: binds

B9: CA4 mAb (antibody, mouse IgG2a, V domains shown)
VH: QVQLQESGPSLVKPSQTLSLTCTVSGFSLTSYSVYWVRQAPGQALEWISIMYASGRVDYNPALKSRLSITRDTSKSQFSLSLSSVTTEDTAVYYCTRGIENWGPGLLVTVSS
VL: DIQVTQSPSSLSASLTERVSITCRTSQSVNNYLSWYQQKPGQAPKLLIYYATRLYTDVPSRFSGSGSGTDYTLTITSLEADDTATYYCLQYDSTPLAFGGGTNVEIKG
notes: sheep-mouse IgG2a chimeric mAb; also called CA4 antibody
- binding result [17]: no binding (tested: 800 nM)
- Kd [12]: 1.3 nM
- koff [12]: 0.00128 s⁻¹
- kon [12]: 1.02e+06 M⁻¹ s⁻¹

B10: S1D12 mAb (antibody, mouse IgG2a, V domains shown)
VH: QVQLQESGPSLVKPSQTLSLTCTVSGFSLNNNAVGWVRQAPGKVPESLVGCSSDGTCYYNSALKSRLDITRDTSKNQISLSLSSVTTDDAAVYYCTRGHYSIYGYDYLGTIDYWGPGLLVTVSS
VL: QAVLTQPSSVSGSLGQRVSITCSGSSSNVGGGNSVGWYQHLPGSGLKTIIYDTNSRPSGVPDRFSGSRSGNTATLTINSLQAEDEGDYYCVTGDSTTHDDLVGSGTRLTVLG
notes: sheep-mouse IgG2a chimeric mAb; also called S1D12 antibody; SD12
- Kd [12]: 0.101 nM
- koff [12]: 4.09e-05 s⁻¹
- kon [12]: 406000 M⁻¹ s⁻¹
- EC50 (read off the curve) [14]: ~30 nM
- binding result [13]: binds

From patent publication US20250355001A1 (GTINVENT, published 2025)
